This note sets out measurements from PMC7335806.

A short description of data set [1]: in vitro vesicle formation assay, immunoblot. The following applies: glycan lost; control: Fzd6WT. In general terms: In western blotting, separated proteins are transferred to a membrane and probed.
A short description of data set [2]: immunofluorescence, surface localisation in COS7 cells. The conditions noted are these: glycan lost; control: HA-Fzd6wt.

B1: Frizzled-6 (Fzd6): N38A, N352A (protein)
parent chain: MERSPFLLACILLPLVRGHSLFTCEPITVPRCMKMTYNMTFFPNLMGHYDQGIAAVEMGHFLHLANLECSPNIEMFLCQAFIPTCTEQIHVVLPCRKLCEKIVSDCKKLMDTFGIRWPEELECNRLPHCDDTVPVTSHPHTELSGPQKKSDQVPRDIGFWCPKHLRTSGDQGYRFLGIEQCAPPCPNMYFKSDELDFAKSFIGIVSIFCLCATLFTFLTFLIDVRRFRYPERPIIYYSVCYSIVSLMYFVGFLLGNSTACNKADEKLELGDTVVLGSKNKACSVVFMFLYFFTMAGTVWWVILTITWFLAAGRKWSCEAIEQKAVWFHAVAWGAPGFLTVMLLAMNKVEGDNISGVCFVGLYDLDASRYFVLLPLCLCVFVGLSLLLAGIISLNHVRQVIQHDGRNQEKLKKFMIRIGVFSGLYLVPLVTLLGCYVYELVNRITWEMTWFSDHCHQYRIPCPYQANPKARPELALFMIKYLMTLIVGISAVFWVGSKKTCTEWAGFFKRNRKRDPISESRRVLQESCEFFLKHNSKVKHKKKHGAPGPHRLKVISKSMGTSTGATTNHGTSAMAIADHDYLGQETSTEVHTSPEASVKEGRADRANTPSAKDRDCGESAGPSSKLSGNRNGRESRAGGLKERSNGSEGAPSEGRVSPKSSVPETGLIDCSTSQAASSPEPTSLKGSTSLPVHSASRARKEQGAGSHSDA
On to B1, for which the localisation_or_trafficking entry in data set [1] and in data set [2] was “decreases” in each case.
